Experiment in all cases: cleavage_in_vitro
Data set [1] deals with EcoRI (Escherichia coli RY13) (UniProt P00642). The following applies: NEB4, 37 C.
Data set [2] concerns T1, SspI (Sphaerotilus species).
T1 sequence: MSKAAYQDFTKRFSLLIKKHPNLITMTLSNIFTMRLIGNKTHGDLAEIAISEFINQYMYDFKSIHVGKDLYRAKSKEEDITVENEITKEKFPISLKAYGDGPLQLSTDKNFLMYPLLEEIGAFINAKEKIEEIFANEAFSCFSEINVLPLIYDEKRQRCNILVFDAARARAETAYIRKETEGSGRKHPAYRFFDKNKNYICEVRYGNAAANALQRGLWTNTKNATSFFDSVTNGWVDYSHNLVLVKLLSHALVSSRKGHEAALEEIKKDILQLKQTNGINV
The conditions noted are these: NEB4, 37 C.

For data set [3], the system named is T2, SspI-HF Y98F (Sphaerotilus species).
T2 sequence: T1 sequence with Y98F
The conditions noted are these: NEB4, 37 C.

For data set [4], the system named is T3, BsmBI (Bacillus stearothermophilus).
T3 sequence: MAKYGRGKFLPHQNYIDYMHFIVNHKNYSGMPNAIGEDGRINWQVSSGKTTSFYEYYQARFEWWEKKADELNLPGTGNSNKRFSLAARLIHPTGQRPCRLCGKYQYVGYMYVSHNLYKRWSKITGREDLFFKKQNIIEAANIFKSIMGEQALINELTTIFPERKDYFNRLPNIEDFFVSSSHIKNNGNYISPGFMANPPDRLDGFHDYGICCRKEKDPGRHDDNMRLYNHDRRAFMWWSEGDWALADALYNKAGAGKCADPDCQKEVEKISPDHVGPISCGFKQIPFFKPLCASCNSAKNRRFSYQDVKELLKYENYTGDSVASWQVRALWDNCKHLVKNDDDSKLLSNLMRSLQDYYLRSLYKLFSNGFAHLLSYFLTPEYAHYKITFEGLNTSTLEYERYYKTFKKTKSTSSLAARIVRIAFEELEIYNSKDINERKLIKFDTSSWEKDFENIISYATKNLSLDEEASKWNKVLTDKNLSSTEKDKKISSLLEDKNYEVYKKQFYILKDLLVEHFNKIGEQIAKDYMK
The following applies: NEB4, 55 C.

Data set [5] deals with T4, SbfI (Streptomyces species Bf-6).
T4 sequence: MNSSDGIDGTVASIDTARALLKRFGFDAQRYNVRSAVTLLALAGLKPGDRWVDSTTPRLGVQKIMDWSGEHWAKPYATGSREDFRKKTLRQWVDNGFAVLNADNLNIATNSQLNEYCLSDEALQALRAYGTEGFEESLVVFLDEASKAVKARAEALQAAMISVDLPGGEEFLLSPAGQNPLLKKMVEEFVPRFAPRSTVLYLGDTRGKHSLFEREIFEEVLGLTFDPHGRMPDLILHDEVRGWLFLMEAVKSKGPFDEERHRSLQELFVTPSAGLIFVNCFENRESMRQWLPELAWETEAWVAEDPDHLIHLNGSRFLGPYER
The following applies: NEB4, 37 C.

Data set [6] has as its system T5, SbfI-HF K251A (Streptomyces species Bf-6).
T5 sequence: T4 sequence with K251A
The conditions noted are these: NEB4, 37 C.

For data set [7], the system named is T6, SphI-HF K100A (Streptomyces phaeochromogenes).
T6 sequence: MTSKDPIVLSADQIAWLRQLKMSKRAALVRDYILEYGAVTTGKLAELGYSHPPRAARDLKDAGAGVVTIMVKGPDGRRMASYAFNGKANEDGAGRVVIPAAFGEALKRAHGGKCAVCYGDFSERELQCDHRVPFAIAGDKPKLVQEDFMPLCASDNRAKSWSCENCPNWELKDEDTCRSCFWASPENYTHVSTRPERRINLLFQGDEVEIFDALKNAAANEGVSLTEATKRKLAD
The conditions noted are these: NEB4, 37 C.

Data set [8] deals with T7, BspQI (Bacillus sphaericus).
T7 sequence: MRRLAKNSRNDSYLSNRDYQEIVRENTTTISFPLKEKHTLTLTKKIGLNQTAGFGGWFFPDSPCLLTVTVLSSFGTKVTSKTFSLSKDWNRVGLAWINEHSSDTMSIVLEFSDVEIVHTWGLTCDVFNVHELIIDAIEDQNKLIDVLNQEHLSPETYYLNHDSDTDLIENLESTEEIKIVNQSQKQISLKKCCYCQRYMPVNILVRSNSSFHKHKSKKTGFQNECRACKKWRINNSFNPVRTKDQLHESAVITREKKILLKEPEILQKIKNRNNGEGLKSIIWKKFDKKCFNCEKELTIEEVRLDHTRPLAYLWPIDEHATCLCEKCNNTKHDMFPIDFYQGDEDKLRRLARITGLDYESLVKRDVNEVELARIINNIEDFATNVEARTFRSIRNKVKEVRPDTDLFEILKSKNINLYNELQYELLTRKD
The following applies: NEB4, 50 C.

Data set [9] has as its target T8, HpaI (Haemophilus parainfluenzae) (UniProt P29537).
T8 sequence: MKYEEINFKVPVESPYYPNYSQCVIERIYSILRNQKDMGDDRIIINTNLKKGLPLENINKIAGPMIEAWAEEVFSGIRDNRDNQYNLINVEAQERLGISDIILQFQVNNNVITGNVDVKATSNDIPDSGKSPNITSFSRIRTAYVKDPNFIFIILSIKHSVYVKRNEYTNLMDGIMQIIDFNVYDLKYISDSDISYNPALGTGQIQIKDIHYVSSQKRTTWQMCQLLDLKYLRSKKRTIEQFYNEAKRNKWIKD
The following applies: NEB4, 37 C.

Changes are numbered by the printed parent chain.

Turning to lambda phage DNA, the activity (fidelity index) was found to be 4 in data set [1]; 16 in data set [2]; 500 in data set [3]; 4 in [4]; 8 in data set [5]; 250 in [6]. Moreover, the activity (fidelity index) was > 2000 in data set [7], 4 in [8] and 16 in data set [9].
